From article PMC4995138

Target: Human pyruvate kinase isoform M2 (PKM2), wild type (human) (UniProt P14618)
Experiment: SEC

Chain of Human pyruvate kinase isoform M2 (PKM2), wild type, P14618 1-531 (enzyme; other documents disagree on this pair) (P14618 whole entry, canonical isoform): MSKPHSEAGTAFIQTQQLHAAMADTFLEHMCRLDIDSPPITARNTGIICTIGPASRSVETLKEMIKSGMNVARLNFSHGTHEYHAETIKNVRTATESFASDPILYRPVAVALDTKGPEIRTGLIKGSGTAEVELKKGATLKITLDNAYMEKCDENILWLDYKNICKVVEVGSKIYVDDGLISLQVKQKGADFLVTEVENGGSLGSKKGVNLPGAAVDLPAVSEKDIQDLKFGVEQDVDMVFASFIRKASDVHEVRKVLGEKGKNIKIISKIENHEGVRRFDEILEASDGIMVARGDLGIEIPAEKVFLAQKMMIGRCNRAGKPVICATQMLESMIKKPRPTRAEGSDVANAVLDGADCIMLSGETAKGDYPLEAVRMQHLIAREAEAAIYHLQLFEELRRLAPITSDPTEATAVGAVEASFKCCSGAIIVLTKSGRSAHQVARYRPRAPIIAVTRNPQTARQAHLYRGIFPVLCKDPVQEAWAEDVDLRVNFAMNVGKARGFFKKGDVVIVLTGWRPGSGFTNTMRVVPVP

stoichiometry N: 2
Substance: Human pyruvate kinase isoform M2 (PKM2), wild type, P14618 1-531 (enzyme; other documents disagree on this pair)
